{
  "source": "the RNAGym collection of RNA variant scans (doi:10.1073/pnas.2313332121)",
  "parents": {"B1": {"name": "TPR 5TU (parent)", "chain": "GGAUCUUCUCGAUCUAACAAAAAAGACAAAUCUGCCACAAAGCUUGAGAGCAUCUUCGGAUGCAGAGGCGGCAGCCUUCGGUGGCGCGAUAGCGCCAACGUUCUCAACUAUGACACGCAAAACGCGUGCUCCGUUGAAUGGAGUUUAUCAUG"}},
  "note": "Fewer inactive variants are shown than the library holds.",
  "data": [
    {"variants_of": "B1", "test": "polymerase ribozyme fitness, log enrichment relative to wild type (log ratio); higher = more active; in vitro selection for triplet polymerase activity", "in_short": "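PCR was used to build mutant libraries for each subunit of a heterodimeric triplet polymerase ribozyme, which were then transcribed. A single in vitro selection round, in triplicate, used a frozen incubation at −7 °C and recovered extended constructs by gel excision, streptavidin beads and RT-PCR. Fitness is the logarithm of genotype enrichment relative to wild-type enrichment, averaged over replicates with inverse-variance weights. The logarithm is base 2, and after Illumina sequencing only genotypes with ≥10 input reads and ≥1 read per output were kept.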", "values": [
      {"variant": "U44C G59A A91U", "polymerase ribozyme fitness (log ratio)": -4},
      {"variant": "U56A G58U C69U C95A C96A C118U", "polymerase ribozyme fitness (log ratio)": -2.19},
      {"variant": "A23U G42C C54U C76A C93A U127C G133C", "polymerase ribozyme fitness (log ratio)": "≤ -4.2"},
      {"variant": "A24U U53A G80A C85U A142C", "polymerase ribozyme fitness (log ratio)": "≤ -4.2"},
      {"variant": "A12G A52U C76U C93U A120U", "polymerase ribozyme fitness (log ratio)": -2.12},
      {"variant": "C14G A19C", "polymerase ribozyme fitness (log ratio)": -1.66},
      {"variant": "U9G G92A C116U C125U U134C", "polymerase ribozyme fitness (log ratio)": "≤ -4.2"},
      {"variant": "A16C U61A G67A C87U A107U", "polymerase ribozyme fitness (log ratio)": "≤ -4.2"},
      {"variant": "U31G G42U G58U G59A G86U U104G C131G G136C", "polymerase ribozyme fitness (log ratio)": "≤ -4.2"},
      {"variant": "A40C U56A G128C", "polymerase ribozyme fitness (log ratio)": -3.92},
      {"variant": "C14G A91U A97G", "polymerase ribozyme fitness (log ratio)": -3.96},
      {"variant": "C54U U77C G84A U109C", "polymerase ribozyme fitness (log ratio)": "≤ -4.2"},
      {"variant": "A21U A24C C79U G80C C85U C93U", "polymerase ribozyme fitness (log ratio)": "≤ -4.2"},
      {"variant": "G11A A19U U61A G84C C85A C103G", "polymerase ribozyme fitness (log ratio)": "≤ -4.2"},
      {"variant": "A17U C87U C125U", "polymerase ribozyme fitness (log ratio)": -1.39},
      {"variant": "A22U U55A C85G", "polymerase ribozyme fitness (log ratio)": -2.29},
      {"variant": "G11C C35U A52C A60G", "polymerase ribozyme fitness (log ratio)": "≤ -4.2"},
      {"variant": "A19C C87U", "polymerase ribozyme fitness (log ratio)": -0.722},
      {"variant": "C69A", "polymerase ribozyme fitness (log ratio)": -1.57},
      {"variant": "A17G U53A C79A G141C", "polymerase ribozyme fitness (log ratio)": "≤ -4.2"},
      {"variant": "A3C C8U U61G G71C G80C C93A C125G U127C U145C G152U", "polymerase ribozyme fitness (log ratio)": "≤ -4.2"},
      {"variant": "C5A U9A A41G C76G A91U G126A G136A", "polymerase ribozyme fitness (log ratio)": "≤ -4.2"},
      {"variant": "C43U G83U G92A", "polymerase ribozyme fitness (log ratio)": "≤ -4.2"},
      {"variant": "A30U G58C C76A G94C U104G G136A", "polymerase ribozyme fitness (log ratio)": "≤ -4.2"},
      {"variant": "A150U", "polymerase ribozyme fitness (log ratio)": 1.3},
      {"variant": "C18A A20C U82C A122C", "polymerase ribozyme fitness (log ratio)": -1.71},
      {"variant": "A41C G80A C87A", "polymerase ribozyme fitness (log ratio)": "≤ -4.2"},
      {"variant": "A17U C87U C96U U104C A107U G141U", "polymerase ribozyme fitness (log ratio)": "≤ -4.2"},
      {"variant": "G46A C129U", "polymerase ribozyme fitness (log ratio)": -3.61},
      {"variant": "A24U A52G A106G G143A", "polymerase ribozyme fitness (log ratio)": -1.81},
      {"variant": "U13A C14A A60G C93U", "polymerase ribozyme fitness (log ratio)": -2.5},
      {"variant": "A98G U101C G141U", "polymerase ribozyme fitness (log ratio)": 0.851},
      {"variant": "U56A A89U", "polymerase ribozyme fitness (log ratio)": -0.431},
      {"variant": "A21G U31A C51G G71U A89C A106G A110U A138G", "polymerase ribozyme fitness (log ratio)": "≤ -4.2"},
      {"variant": "A28U A40U G48A A119U U127C U146G", "polymerase ribozyme fitness (log ratio)": "≤ -4.2"},
      {"variant": "A52U C54U", "polymerase ribozyme fitness (log ratio)": -1.2},
      {"variant": "A19C A150U", "polymerase ribozyme fitness (log ratio)": 2.88},
      {"variant": "U31A U53A C95U A119G", "polymerase ribozyme fitness (log ratio)": -0.866},
      {"variant": "A49C A89U G92C U104G U127G A142G", "polymerase ribozyme fitness (log ratio)": "≤ -4.2"},
      {"variant": "C14G C79A C93G C96A", "polymerase ribozyme fitness (log ratio)": "≤ -4.2"},
      {"variant": "A52G A66U A91U", "polymerase ribozyme fitness (log ratio)": "≤ -4.2"},
      {"variant": "A23C A49G C93U U148C", "polymerase ribozyme fitness (log ratio)": "≤ -4.2"},
      {"variant": "C96U A115U", "polymerase ribozyme fitness (log ratio)": -2.64},
      {"variant": "C51U U56A", "polymerase ribozyme fitness (log ratio)": -0.892},
      {"variant": "G42A G86A C103U A119C", "polymerase ribozyme fitness (log ratio)": "≤ -4.2"},
      {"variant": "C36G C54U G92A A110G G143A", "polymerase ribozyme fitness (log ratio)": "≤ -4.2"},
      {"variant": "A47C G84A", "polymerase ribozyme fitness (log ratio)": -0.485},
      {"variant": "A3G G94C", "polymerase ribozyme fitness (log ratio)": -1.07},
      {"variant": "U109G G133C", "polymerase ribozyme fitness (log ratio)": -2},
      {"variant": "A16G C87U", "polymerase ribozyme fitness (log ratio)": -1.85},
      {"variant": "G81A U127G", "polymerase ribozyme fitness (log ratio)": -3.31},
      {"variant": "A37U A64U", "polymerase ribozyme fitness (log ratio)": "≤ -4.2"},
      {"variant": "C38G U56G C72A A91U A107C G117A U148A", "polymerase ribozyme fitness (log ratio)": "≤ -4.2"},
      {"variant": "U13G C35A G50A C54A C76G C87G A89U A107C G141C", "polymerase ribozyme fitness (log ratio)": "≤ -4.2"},
      {"variant": "A60U A91G G141A U145G", "polymerase ribozyme fitness (log ratio)": -3.98},
      {"variant": "C57G G65C G84A U139A G140U", "polymerase ribozyme fitness (log ratio)": "≤ -4.2"},
      {"variant": "C14U A29U G71A G88C C93A", "polymerase ribozyme fitness (log ratio)": "≤ -4.2"},
      {"variant": "A24U C85U", "polymerase ribozyme fitness (log ratio)": -0.914},
      {"variant": "A12C A23G U31C U55A", "polymerase ribozyme fitness (log ratio)": "≤ -4.2"},
      {"variant": "A12C U55G A97G C105U", "polymerase ribozyme fitness (log ratio)": -3.12},
      {"variant": "C54A U101G U134C U139G U144A", "polymerase ribozyme fitness (log ratio)": -1.85},
      {"variant": "C32A C87A C93U", "polymerase ribozyme fitness (log ratio)": "≤ -4.2"},
      {"variant": "C85G U139C G143A", "polymerase ribozyme fitness (log ratio)": "≤ -4.2"},
      {"variant": "A40C U82C G94U", "polymerase ribozyme fitness (log ratio)": -0.916},
      {"variant": "C10U C32G U145C", "polymerase ribozyme fitness (log ratio)": -4.16},
      {"variant": "C87U U101G A137C", "polymerase ribozyme fitness (log ratio)": -3.73},
      {"variant": "A89U C93G A147U", "polymerase ribozyme fitness (log ratio)": -2.7},
      {"variant": "C96U G143A", "polymerase ribozyme fitness (log ratio)": -0.236},
      {"variant": "A22U U56A C93G A98G C108A C114G U151A", "polymerase ribozyme fitness (log ratio)": "≤ -4.2"},
      {"variant": "A17G C96U", "polymerase ribozyme fitness (log ratio)": 0.456},
      {"variant": "G83A U90G G94C A110G G152U", "polymerase ribozyme fitness (log ratio)": "≤ -4.2"},
      {"variant": "U61A G86A A122G", "polymerase ribozyme fitness (log ratio)": -2.67},
      {"variant": "A28U G50A U55C U139G", "polymerase ribozyme fitness (log ratio)": "≤ -4.2"},
      {"variant": "G50U U55G C75A A97G A137U U151A", "polymerase ribozyme fitness (log ratio)": "≤ -4.2"},
      {"variant": "C35U U45A G83C C85G A97G G141C", "polymerase ribozyme fitness (log ratio)": "≤ -4.2"},
      {"variant": "C32U C69G C72U G88C U135G", "polymerase ribozyme fitness (log ratio)": "≤ -4.2"},
      {"variant": "A22U A41U A60U A106U", "polymerase ribozyme fitness (log ratio)": -4.16},
      {"variant": "A28U A39C A98G G143U U144G U146G", "polymerase ribozyme fitness (log ratio)": "≤ -4.2"},
      {"variant": "C8U A29G A52G U56A U127G", "polymerase ribozyme fitness (log ratio)": "≤ -4.2"},
      {"variant": "G59U G88U A121U U127A U134G", "polymerase ribozyme fitness (log ratio)": "≤ -4.2"},
      {"variant": "A60G G70A U78C U130A", "polymerase ribozyme fitness (log ratio)": "≤ -4.2"},
      {"variant": "A26U G65A A66U U77C C96U A106U A107U C132U U139A G143C U148A", "polymerase ribozyme fitness (log ratio)": "≤ -4.2"},
      {"variant": "A37G U55G C85G", "polymerase ribozyme fitness (log ratio)": -3.49},
      {"variant": "A28U U44G U82G C87U C114U G133A U146G", "polymerase ribozyme fitness (log ratio)": "≤ -4.2"}
    ]}
  ]
}
